Publication PMC8249616, “Structural basis of the activation of c-MET receptor” (Nature Communications, 2021)

B1: NK1 (human HGF amino acids 31-209) (ligand, UniProt P14210 31-209, looked up)
chain: GQRKRRNTIHEFKKSAKTTLIKIDPALKIKTKKVNTADQCANRCTRNKGLPFTCKAFVFDKARKQCLWFPFNSMSSGVKKEFGHEFDLYENKDYIRNCIIGKGRSYKGTVSITKSGIKCQPWSSMIPHEHSFLPSSYRGKDLQENYCRNPRGEEGGPWCFTSNPEVRYEVCDIPQCSEV
notes: human HGF amino acids 31-209 (N and K1 domains), after an HR3C site; source: E. coli Rosetta-gami 2 (DE3), purified (Ni Sepharose, SEC); not shown: DsBC, N-terminal, cleaved; His6, N-terminal, cleaved
B2: c-MET927-LZ (c-MET 1-927, GGGGS linker, GCN4 leucine zipper), tags cleaved (receptor)
chain: not shown
notes: signal peptide in the construct; linker; written here as one chain; also called c-MET-LZ; c-MET I; source: HEK293F infected with baculovirus (pEZT-BM), secreted, purified (Ni resin, SEC); not shown: Tsi3, C-terminal, cleaved; His6, C-terminal, cleaved

Legend:
[1] = target: the molecule itself; assay: cryo-EM structure; c-MET927-LZ mixed with NK1 and heparin (Tinzaparin sodium) 1:1:4, complex isolated by SEC in 20 mM Hepes pH 7.5, 100 mM NaCl; 2 mM fluorinated Fos-Choline-8 added before freezing
[2] = target: T1, full-length human hepatocyte growth factor (HGF), wild type (human, UniProt P14210 32-728); assay: SEC; c-MET927 or c-MET927-LZ alone and mixed with HGF in vitro (Supplementary Fig. 1); whether heparin was added is not told; settings: both partners purified
T1 construct: signal peptide in the construct; full-length human HGF followed by an HR3C site and a His6 tag; written here as one chain; also called HGF WT; HGF I; source: HEK293F infected with baculovirus (pEZT-BM), 5% FBS in the medium, secreted, purified (cation exchange, SEC)

[3] = target: the molecule itself; assay: as above
[4] = target: B1; assay: cryo-EM structure; c-MET927-LZ mixed with NK1 and heparin (Tinzaparin sodium) 1:1:4, complex isolated by SEC in 20 mM Hepes pH 7.5, 100 mM NaCl; 2 mM fluorinated Fos-Choline-8 added before freezing; settings: both partners purified

T1 sequence (P14210 32-728): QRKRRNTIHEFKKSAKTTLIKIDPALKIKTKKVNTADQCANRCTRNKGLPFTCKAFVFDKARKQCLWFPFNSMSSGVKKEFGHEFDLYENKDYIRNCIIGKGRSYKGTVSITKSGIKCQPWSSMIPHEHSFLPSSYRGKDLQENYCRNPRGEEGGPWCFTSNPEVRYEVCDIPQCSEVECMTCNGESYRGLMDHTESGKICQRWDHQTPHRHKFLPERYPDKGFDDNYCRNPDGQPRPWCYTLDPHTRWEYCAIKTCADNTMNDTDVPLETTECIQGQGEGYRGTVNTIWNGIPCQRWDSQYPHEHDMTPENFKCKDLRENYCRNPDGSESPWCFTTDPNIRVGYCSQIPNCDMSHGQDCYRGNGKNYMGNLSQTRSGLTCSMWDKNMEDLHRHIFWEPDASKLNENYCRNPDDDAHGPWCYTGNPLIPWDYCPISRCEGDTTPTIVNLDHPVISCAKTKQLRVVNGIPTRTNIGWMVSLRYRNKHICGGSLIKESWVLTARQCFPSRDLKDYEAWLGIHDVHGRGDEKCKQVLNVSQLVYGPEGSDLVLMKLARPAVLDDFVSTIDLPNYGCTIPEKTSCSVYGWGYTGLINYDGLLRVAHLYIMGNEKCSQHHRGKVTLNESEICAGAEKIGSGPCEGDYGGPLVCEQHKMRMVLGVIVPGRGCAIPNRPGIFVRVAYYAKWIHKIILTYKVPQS

Binder	stoichiometry N [1]	binding result [2]	stoichiometry N [3]	binding result [4]
B1	2			
B2		binds	2	binds
